The source of these data is PMC2935576 (The Journal of Cell Biology, 2010).

The target in one test is Spc105p 800-829 (UniProt P53148). In words: ITC, Spc105p peptide 1 with MIND complex. Particulars: reference: untreated MIND complex; sites S250. (Isothermal titration calorimetry measures the heat released or taken up as one component is titrated into another.)
Test [1] deals with recombinant S. cerevisiae NDC80 complex (Ndc80p, Nuf2p, Spc24p, Spc25p), His-tagged on Ndc80p (S. cerevisiae, UniProt P40460;P33895;Q04477;P40014). In words: ITC.
Another test concerns the target T1, Dsn1p–Nsl1p heterodimer (S. cerevisiae, UniProt P40568;Q12143).
T1 sequence 1: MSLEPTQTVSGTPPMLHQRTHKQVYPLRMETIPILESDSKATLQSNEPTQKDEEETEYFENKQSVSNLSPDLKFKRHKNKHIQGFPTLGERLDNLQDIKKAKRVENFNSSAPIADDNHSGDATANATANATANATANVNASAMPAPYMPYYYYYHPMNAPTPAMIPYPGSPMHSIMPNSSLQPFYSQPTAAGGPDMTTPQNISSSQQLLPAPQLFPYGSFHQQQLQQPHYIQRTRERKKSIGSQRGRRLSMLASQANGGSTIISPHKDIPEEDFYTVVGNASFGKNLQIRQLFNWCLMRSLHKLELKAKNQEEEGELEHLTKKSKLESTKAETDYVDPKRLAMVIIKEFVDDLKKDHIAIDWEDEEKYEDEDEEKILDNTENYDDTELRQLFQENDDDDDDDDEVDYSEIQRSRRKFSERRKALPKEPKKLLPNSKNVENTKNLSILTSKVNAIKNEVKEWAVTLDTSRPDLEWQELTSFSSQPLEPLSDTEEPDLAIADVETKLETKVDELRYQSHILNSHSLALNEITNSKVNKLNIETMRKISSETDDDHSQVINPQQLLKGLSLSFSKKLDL
T1 sequence 2: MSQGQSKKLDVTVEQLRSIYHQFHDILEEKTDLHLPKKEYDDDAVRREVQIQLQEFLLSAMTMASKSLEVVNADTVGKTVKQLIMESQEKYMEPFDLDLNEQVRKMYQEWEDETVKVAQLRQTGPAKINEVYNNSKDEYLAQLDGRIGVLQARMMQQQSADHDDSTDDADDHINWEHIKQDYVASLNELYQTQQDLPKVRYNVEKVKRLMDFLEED
Description: AUC.

Test [2] addresses T2, Mtw1p residues 1–220 (trypsin-resistant fragment) (S. cerevisiae, UniProt P39731 1-220).
T2 sequence: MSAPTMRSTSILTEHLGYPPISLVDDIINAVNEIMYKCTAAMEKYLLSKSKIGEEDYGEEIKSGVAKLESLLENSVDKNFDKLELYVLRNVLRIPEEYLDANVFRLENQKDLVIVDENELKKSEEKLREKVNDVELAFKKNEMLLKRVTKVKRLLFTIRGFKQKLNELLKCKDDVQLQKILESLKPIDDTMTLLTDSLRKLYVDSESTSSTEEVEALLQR
Description: limited proteolysis.

In test [3] the target is T3, Dsn1p residues 103–412 (trypsin-resistant fragment) (S. cerevisiae, UniProt P40568 103-412).
T3 sequence: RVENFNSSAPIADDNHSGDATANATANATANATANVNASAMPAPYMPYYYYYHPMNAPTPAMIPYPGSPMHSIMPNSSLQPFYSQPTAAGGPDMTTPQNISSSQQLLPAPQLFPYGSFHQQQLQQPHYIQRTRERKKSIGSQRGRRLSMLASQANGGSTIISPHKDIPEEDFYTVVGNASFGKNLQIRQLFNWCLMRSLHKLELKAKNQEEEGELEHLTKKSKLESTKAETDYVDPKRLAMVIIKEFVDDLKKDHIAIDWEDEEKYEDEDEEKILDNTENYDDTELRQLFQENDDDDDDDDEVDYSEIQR
Description: limited proteolysis.

Chain of recombinant S. cerevisiae NDC80 complex (Ndc80p, Nuf2p, Spc24p, Spc25p), His-tagged on Ndc80p (P40460 whole entry, chain 1 of 4): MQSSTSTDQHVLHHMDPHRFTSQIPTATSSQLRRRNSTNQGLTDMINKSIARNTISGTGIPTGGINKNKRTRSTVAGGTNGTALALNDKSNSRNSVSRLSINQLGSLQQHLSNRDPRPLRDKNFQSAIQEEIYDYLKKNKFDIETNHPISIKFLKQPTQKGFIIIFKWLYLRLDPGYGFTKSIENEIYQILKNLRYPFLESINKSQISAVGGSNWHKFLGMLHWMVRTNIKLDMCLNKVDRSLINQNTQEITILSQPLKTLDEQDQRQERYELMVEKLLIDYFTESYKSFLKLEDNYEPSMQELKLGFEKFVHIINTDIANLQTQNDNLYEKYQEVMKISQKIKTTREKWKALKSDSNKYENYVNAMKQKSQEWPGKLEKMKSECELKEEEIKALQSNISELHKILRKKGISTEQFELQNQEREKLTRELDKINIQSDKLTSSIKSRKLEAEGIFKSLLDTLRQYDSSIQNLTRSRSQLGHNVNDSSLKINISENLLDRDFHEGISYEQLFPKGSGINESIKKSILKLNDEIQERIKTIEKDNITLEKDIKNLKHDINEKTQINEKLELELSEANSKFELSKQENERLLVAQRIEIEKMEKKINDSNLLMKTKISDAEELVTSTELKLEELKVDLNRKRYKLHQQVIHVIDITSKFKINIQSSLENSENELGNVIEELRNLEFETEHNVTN
Chain of recombinant S. cerevisiae NDC80 complex (Ndc80p, Nuf2p, Spc24p, Spc25p), His-tagged on Ndc80p (P33895 whole entry, chain 2 of 4): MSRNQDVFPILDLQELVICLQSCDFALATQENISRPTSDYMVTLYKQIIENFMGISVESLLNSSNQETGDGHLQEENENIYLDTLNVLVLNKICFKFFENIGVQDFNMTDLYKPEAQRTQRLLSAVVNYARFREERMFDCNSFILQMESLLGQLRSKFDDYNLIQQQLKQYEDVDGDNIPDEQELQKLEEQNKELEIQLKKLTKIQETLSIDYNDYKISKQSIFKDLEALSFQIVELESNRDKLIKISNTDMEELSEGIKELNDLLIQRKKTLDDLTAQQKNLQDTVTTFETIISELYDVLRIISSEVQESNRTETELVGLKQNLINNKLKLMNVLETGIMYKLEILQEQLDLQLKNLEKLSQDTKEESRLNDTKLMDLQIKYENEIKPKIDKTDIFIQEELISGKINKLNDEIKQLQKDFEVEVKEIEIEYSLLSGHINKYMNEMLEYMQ
Chain of recombinant S. cerevisiae NDC80 complex (Ndc80p, Nuf2p, Spc24p, Spc25p), His-tagged on Ndc80p (Q04477 whole entry, chain 3 of 4): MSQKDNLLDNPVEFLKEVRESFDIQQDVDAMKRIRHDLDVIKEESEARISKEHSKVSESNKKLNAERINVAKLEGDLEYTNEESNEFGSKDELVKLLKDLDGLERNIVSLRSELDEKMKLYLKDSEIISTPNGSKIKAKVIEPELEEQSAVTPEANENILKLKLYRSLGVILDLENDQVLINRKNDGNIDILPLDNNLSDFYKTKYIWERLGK
Chain of recombinant S. cerevisiae NDC80 complex (Ndc80p, Nuf2p, Spc24p, Spc25p), His-tagged on Ndc80p (P40014 whole entry, chain 4 of 4): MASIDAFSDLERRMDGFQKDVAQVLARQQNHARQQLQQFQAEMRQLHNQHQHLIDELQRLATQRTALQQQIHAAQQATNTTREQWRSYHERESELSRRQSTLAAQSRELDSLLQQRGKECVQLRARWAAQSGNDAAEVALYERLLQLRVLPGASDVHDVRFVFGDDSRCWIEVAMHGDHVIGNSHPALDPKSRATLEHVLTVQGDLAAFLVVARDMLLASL

For “Dsn1p (from UniProt P40568) Ipl1p-phosphorylated MIND complex (Dsn1p pS250)”, the “binding against the reference” value with Spc105p 800-829 is recorded as “same”.

B1: MIND complex phosphorylated on Dsn1p Ser250 by Ipl1p (complex)
chain 1: T1 sequence 1
chain 2: MSAPTMRSTSILTEHLGYPPISLVDDIINAVNEIMYKCTAAMEKYLLSKSKIGEEDYGEEIKSGVAKLESLLENSVDKNFDKLELYVLRNVLRIPEEYLDANVFRLENQKDLVIVDENELKKSEEKLREKVNDVELAFKKNEMLLKRVTKVKRLLFTIRGFKQKLNELLKCKDDVQLQKILESLKPIDDTMTLLTDSLRKLYVDSESTSSTEEVEALLQRLKTNGKQNNKDFRTRYIDIRTNNVLRKLGLLGDKEDEKQSAKPDARTQAGDIVSIDIEEPQLDLLDDVL
chain 3: MVNSHGIRYIRLKQVFNRALDQSISKLQSWDKVSSCFPQYVNSKQGAINVANCQRQLTEFWTELCQREFKEIMEERNVEQKLNELDELILEAKERYTDRDQDEVNKGPAIDELSSKELVECHLYSQRMHAIHEIDERLAKVNEMNDQLAQELKDLETQVEVEKNEIGKMYDEYLGSHTDQPANVLLVQSLNDMVLELKENY
chain 4: T1 sequence 2
modifications: phosphoserine at 250
On to B1, for which, in test [1], the binding result is given as “binds”.

B2: Mtw1p–Nnf1p heterodimer (complex)
chain 1: B1 chain 2
chain 2: B1 chain 3
On to B2, for which the “stoichiometry N” value with Dsn1p–Nsl1p heterodimer is 1.

B3: Nnf1p (natural protein)
chain: B1 chain 3
For the molecule B3, in test [2], the binding result is “binds”.

B4: Nsl1p (natural protein)
chain: T1 sequence 2
Turning to B4, the binding result in test [3] is “binds”.

One may read the stoichiometry N as the number of molecules, sites or subunits per partner or assembly.
